In the supplement of paper PMC9112550, “Optimization of the antimicrobial peptide Bac7 by deep mutational scanning” (BMC Biology, 2022):

Test system: Escherichia coli TOP10
Assay: shrunken log2 fold change of peptide-encoding DNA abundance (4.5 h post-induction vs induction); higher = less antimicrobial activity (less host growth inhibition)
Settings: time post-induction: 4.5 h; library: site-saturation at positions 5, 18, 19, 20
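Also: peptides expressed intracellularly from a pBAD plasmid library in pooled LB shake-flask culture, induced with 0.3% L-arabinose, DNA abundance read by NGS, three biological replicates, DESeq2 with apeglm shrinkage.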

Row | Sequence | shrunken log2 fold change
1 | RRIRNRPPRLPRPRPRPSTSPRP | -0.36
2 | RRIRQRPPRLPRPRPRPSEFPRP | -0.0736
3 | RRIRDRPPRLPRPRPRPNTRPRP | -0.238
4 | RRIRHRPPRLPRPRPRPMSFPRP | -0.089
5 | RRIRDRPPRLPRPRPRPVCQPRP | 0.0526
6 | RRIRIRPPRLPRPRPRPLLCPRP | -0.462
7 | RRIRCRPPRLPRPRPRPNYNPRP | -0.986
8 | RRIRYRPPRLPRPRPRPGNKPRP | -0.292
9 | RRIRFRPPRLPRPRPRPNMNPRP | -0.953
10 | RRIRCRPPRLPRPRPRPNWPPRP | 0.0717
11 | RRIRARPPRLPRPRPRPVFMPRP | 0.0722
12 | RRIRMRPPRLPRPRPRPCRSPRP | 0.0369
13 | RRIRMRPPRLPRPRPRPMHPPRP | 0.0065
14 | RRIRKRPPRLPRPRPRPKPVPRP | 0.39
15 | RRIRFRPPRLPRPRPRPSKSPRP | -0.123
16 | RRIRERPPRLPRPRPRPLFAPRP | -0.0197
17 | RRIRWRPPRLPRPRPRPKQFPRP | 0.207
18 | RRIRKRPPRLPRPRPRPTQRPRP | 1.13
19 | RRIRMRPPRLPRPRPRPPWRPRP | 1.34
20 | RRIRHRPPRLPRPRPRPIVCPRP | -0.0297
21 | RRIRARPPRLPRPRPRPSQFPRP | -0.0956
22 | RRIRVRPPRLPRPRPRPRNQPRP | 0.0453
23 | RRIRGRPPRLPRPRPRPNVRPRP | 0.265
24 | RRIRSRPPRLPRPRPRPPREPRP | 0.622
25 | RRIRARPPRLPRPRPRPWRTPRP | 0.14

Row | Sequence | shrunken log2 fold change
26 | RRIRIRPPRLPRPRPRPLQGPRP | -0.182
27 | RRIRFRPPRLPRPRPRPQRMPRP | -0.29
28 | RRIRWRPPRLPRPRPRPLIRPRP | -0.117
29 | RRIRLRPPRLPRPRPRPPISPRP | 0.0176
30 | RRIRWRPPRLPRPRPRPLRSPRP | 0.884
31 | RRIRDRPPRLPRPRPRPVSDPRP | -0.145
32 | RRIRHRPPRLPRPRPRPQLEPRP | 0.0607
33 | RRIRCRPPRLPRPRPRPGTCPRP | -0.143
34 | RRIRERPPRLPRPRPRPPHDPRP | 0.0906
35 | RRIRSRPPRLPRPRPRPFVIPRP | -0.206
36 | RRIRGRPPRLPRPRPRPKELPRP | 0.247
37 | RRIRHRPPRLPRPRPRPWSSPRP | -0.116
38 | RRIRPRPPRLPRPRPRPCEYPRP | 1.65
39 | RRIRNRPPRLPRPRPRPCQFPRP | -0.0212
40 | RRIRTRPPRLPRPRPRPGANPRP | -0.124
41 | RRIRVRPPRLPRPRPRPQVYPRP | -0.0131
42 | RRIRHRPPRLPRPRPRPEMLPRP | -0.32
43 | RRIRTRPPRLPRPRPRPYLPPRP | -0.513
44 | RRIRDRPPRLPRPRPRPWGVPRP | 0.0789
45 | RRIRIRPPRLPRPRPRPRKVPRP | -0.0904
46 | RRIRGRPPRLPRPRPRPFERPRP | -0.012
47 | RRIRLRPPRLPRPRPRPGHGPRP | -0.00133
48 | RRIRWRPPRLPRPRPRPVYPPRP | -0.104
49 | RRIRQRPPRLPRPRPRPNQSPRP | -0.0722
50 | RRIRFRPPRLPRPRPRPAKQPRP | -0.0234

Row | Sequence | shrunken log2 fold change
51 | RRIRLRPPRLPRPRPRPQPNPRP | -0.00696
52 | RRIRNRPPRLPRPRPRPRQLPRP | 0.244
53 | RRIRMRPPRLPRPRPRPHRCPRP | 0.15
54 | RRIRGRPPRLPRPRPRPNAGPRP | 0.552
55 | RRIRQRPPRLPRPRPRPTLYPRP | -0.0318
56 | RRIRYRPPRLPRPRPRPPTCPRP | -0.163
57 | RRIRCRPPRLPRPRPRPASIPRP | -0.612
58 | RRIRGRPPRLPRPRPRPMHCPRP | 0.0139
59 | RRIRFRPPRLPRPRPRPTSWPRP | 0.3
60 | RRIRPRPPRLPRPRPRPYRQPRP | -0.0384
61 | RRIRKRPPRLPRPRPRPSLPPRP | -0.0153
62 | RRIRDRPPRLPRPRPRPNELPRP | -0.0493
63 | RRIRSRPPRLPRPRPRPTHAPRP | 0.368
64 | RRIRARPPRLPRPRPRPYYEPRP | -1.02
65 | RRIRPRPPRLPRPRPRPTLEPRP | 0.393
66 | RRIRWRPPRLPRPRPRPISGPRP | -0.12
67 | RRIRSRPPRLPRPRPRPGILPRP | -0.0441
68 | RRIRLRPPRLPRPRPRPEVDPRP | -0.0786
69 | RRIRERPPRLPRPRPRPQLWPRP | 0.116
70 | RRIRPRPPRLPRPRPRPINGPRP | -0.482
71 | RRIRCRPPRLPRPRPRPDPCPRP | -0.039
72 | RRIRRRPPRLPRPRPRPHNNPRP | -0.508
73 | RRIRGRPPRLPRPRPRPYSSPRP | -0.223
74 | RRIRMRPPRLPRPRPRPRPIPRP | 0.754
75 | RRIRARPPRLPRPRPRPTESPRP | 0.659
